Test results published in the Immune Epitope Database (IEDB).

Tests used:
HLA-A*03:01 = experiment: IEDB peptide-MHC binding, purified MHC/direct/fluorescence; filed as Kd, often an IC50 or EC50 that approximates it; ≥ and ≤ were set here for values at or beyond the usual limits of such assays
HLA-B*48:01 = experiment: as above; conditions: source organism: Influenza A virus (A/Wisconsin/4755/1994(H1N1))
HLA-B*15:01 [1] = experiment: as above
HLA-A*02:01 [2] = experiment: as above; conditions: source organism: Influenza A virus (A/Wisconsin/4755/1994(H1N1))
HLA-B*58:01 = experiment: as above; conditions: source organism: Influenza A virus (A/Wisconsin/4755/1994(H1N1))
HLA-A*26:02 = experiment: as above; conditions: source organism: Influenza A virus H3N2
HLA-A*01:01 = experiment: as above; conditions: source organism: Influenza A virus (A/Wisconsin/4755/1994(H1N1))
HLA-B*15:17 [3] = experiment: as above; conditions: source organism: Influenza A virus (A/Wisconsin/4755/1994(H1N1))
HLA-A*69:01 [4] = experiment: as above; conditions: source organism: Influenza A virus (A/Wisconsin/4755/1994(H1N1))
HLA-B*46:01 [5] = experiment: as above; conditions: source organism: Influenza A virus (A/Wisconsin/4755/1994(H1N1))
HLA-B*27:05 = experiment: as above; conditions: source organism: Influenza A virus (A/Wisconsin/4755/1994(H1N1))
HLA-A*31:01 = experiment: as above; conditions: source organism: Influenza A virus (A/Wisconsin/4755/1994(H1N1))
HLA-B*40:01 = experiment: as above; conditions: source organism: Influenza A virus (A/Wisconsin/4755/1994(H1N1))
HLA-A*11:01 = experiment: as above; conditions: source organism: Influenza A virus (A/Wisconsin/4755/1994(H1N1))
HLA-A*26:01 [6] = experiment: as above; conditions: source organism: Influenza A virus H3N2
HLA-B*57:01 [7] = experiment: as above; conditions: source organism: Influenza A virus (A/Wisconsin/4755/1994(H1N1))
HLA-B*18:01 [8] = experiment: as above; conditions: source organism: Influenza A virus (A/Wisconsin/4755/1994(H1N1))
HLA-A*68:02 = experiment: as above
HLA-B*08:01 = experiment: as above; conditions: source organism: Influenza A virus (A/seal/Mass/1/1980(H7N7))
HLA-B*07:02 = experiment: as above
HLA-B*15:01 [9] = experiment: IEDB peptide-MHC binding, purified MHC/competitive/fluorescence; filed as Kd, often an IC50 or EC50 that approximates it; ≥ and ≤ were set here for values at or beyond the usual limits of such assays
HLA-A*02:01 [10] = experiment: as above
HLA-B*27:03 = experiment: as above
HLA-B*15:17 [11] = experiment: as above
HLA-A*69:01 [12] = experiment: as above
HLA-B*46:01 [13] = experiment: as above
HLA-A*26:01 [14] = experiment: as above
HLA-B*39:01 = experiment: as above
HLA-B*57:01 [15] = experiment: as above
HLA-B*18:01 [16] = experiment: as above
HLA-B*51:01 = experiment: as above
HLA-A*02:12 = experiment: IEDB peptide-MHC binding, purified MHC/direct/fluorescence; filed as Kd, often an IC50 or EC50 that approximates it; ≥ and ≤ were set here for values at or beyond the usual limits of such assays
HLA-A*29:02 = experiment: as above
HLA-A*02:11 = experiment: as above
HLA-A*02:16 = experiment: as above
HLA-A*02:03 = experiment: as above
HLA-A*23:01 = experiment: as above
HLA-A*02:19 = experiment: as above
HLA-A*24:03 = experiment: as above
[17] = source organism: Influenza A virus (A/Wisconsin/4755/1994(H1N1))
[18] = source organism: Reston ebolavirus
[19] = source organism: Zaire ebolavirus
[20] = source organism: Ravn virus - Ravn, Kenya, 1987
[21] = source organism: Sudan ebolavirus - Maleo (1979)

Sequence: DPKKTGGPI
- Kd (HLA-A*03:01; [17]): ≥ 20 µM
- Kd (HLA-B*48:01): ≥ 20 µM
- Kd (HLA-B*15:01 [1]; [17]): ≥ 20000 nM
- Kd (HLA-A*02:01 [2]): ≥ 20 µM
- Kd (HLA-B*58:01): ≥ 20 µM
- Kd (HLA-A*26:02): ≥ 20 µM
- Kd (HLA-A*01:01): ≥ 20 µM
- Kd (HLA-B*15:17 [3]): ≥ 20 µM
- Kd (HLA-A*69:01 [4]): ≥ 20 µM
- Kd (HLA-B*46:01 [5]): ≥ 20 µM
- Kd (HLA-B*27:05): ≥ 20 µM
- Kd (HLA-A*31:01): ≥ 20 µM
- Kd (HLA-B*40:01): ≥ 20 µM
- Kd (HLA-A*11:01): ≥ 20 µM
- Kd (HLA-A*26:01 [6]): ≥ 20 µM
- Kd (HLA-B*57:01 [7]): ≥ 20 µM
- Kd (HLA-B*18:01 [8]): ≥ 20 µM
- Kd (HLA-A*68:02; [17]): ≥ 20 µM
- Kd (HLA-B*08:01): ≥ 20 µM
- Kd (HLA-B*07:02; source organism: Influenza A virus (A/seal/Mass/1/1980(H7N7))): 84.9 nM

Sequence: LPRERFRKT
- Kd (HLA-B*15:01 [9]; [18]): ≥ 20 µM
- Kd (HLA-A*02:01 [10]; [18]): ≥ 20 µM
- Kd (HLA-B*27:03; [18]): ≥ 20 µM
- Kd (HLA-B*15:17 [11]; [18]): ≥ 20 µM
- Kd (HLA-A*69:01 [12]; [18]): ≥ 20 µM
- Kd (HLA-B*46:01 [13]; [18]): ≥ 20 µM
- Kd (HLA-A*26:01 [14]; [18]): ≥ 20 µM
- Kd (HLA-B*39:01; [18]): ≥ 20 µM
- Kd (HLA-B*57:01 [15]; [18]): ≥ 20 µM
- Kd (HLA-B*18:01 [16]; [18]): ≥ 20 µM
- Kd (HLA-B*51:01; [18]): ≥ 20 µM
- Kd (HLA-A*03:01; [18]): ≥ 20 µM
- Kd (HLA-A*02:12; [18]): ≥ 20 µM
- Kd (HLA-A*29:02; [18]): ≥ 20 µM
- Kd (HLA-A*02:11; [18]): ≥ 20 µM
- Kd (HLA-A*02:16; [18]): ≥ 20 µM
- Kd (HLA-A*02:03; [18]): ≥ 20 µM
- Kd (HLA-A*23:01; [18]): ≥ 20 µM
- Kd (HLA-A*02:19; [18]): ≥ 20 µM
- Kd (HLA-A*68:02; [18]): ≥ 20 µM
- Kd (HLA-B*07:02; source organism: Tai Forest virus - Cote d'Ivoire, Cote d'Ivoire, 1994): 179 nM
- Kd (HLA-A*24:03; [18]): ≥ 20 µM

Sequence: PQVLGGLSF
- Kd (HLA-A*02:01 [10]; [19]): ≥ 20 µM
- Kd (HLA-B*27:03; [19]): ≥ 20 µM
- Kd (HLA-B*15:17 [11]; [19]): ≥ 20 µM
- Kd (HLA-A*69:01 [12]; [19]): ≥ 20 µM
- Kd (HLA-B*46:01 [13]; [19]): ≥ 20 µM
- Kd (HLA-A*26:01 [14]; [19]): ≥ 20 µM
- Kd (HLA-B*39:01; [19]): ≥ 20 µM
- Kd (HLA-B*57:01 [15]; [19]): ≥ 20 µM
- Kd (HLA-B*18:01 [16]; [19]): ≥ 20 µM
- Kd (HLA-B*51:01; [19]): ≥ 20 µM
- Kd (HLA-A*03:01; [20]): ≥ 20 µM
- Kd (HLA-A*02:12; [20]): ≥ 20 µM
- Kd (HLA-B*15:01 [1]; [21]): 475 nM
- Kd (HLA-A*02:11; [20]): ≥ 20 µM
- Kd (HLA-A*02:16; [20]): ≥ 20 µM
- Kd (HLA-A*02:03; [20]): ≥ 20 µM
- Kd (HLA-A*23:01; [20]): ≥ 20 µM
- Kd (HLA-A*02:19; [20]): ≥ 20 µM
- Kd (HLA-A*68:02; [20]): ≥ 20 µM
- Kd (HLA-A*24:03; [20]): ≥ 20 µM

Sequence: TPSHYSGNI
- Kd (HLA-B*15:01 [9]; [19]): ≥ 20 µM
- Kd (HLA-A*02:01 [10]; [19]): ≥ 20 µM
- Kd (HLA-B*27:03; [19]): ≥ 20 µM
- Kd (HLA-B*15:17 [11]; [19]): ≥ 20 µM
- Kd (HLA-A*69:01 [12]; [19]): ≥ 20 µM
- Kd (HLA-B*46:01 [13]; [19]): ≥ 20 µM
- Kd (HLA-A*26:01 [14]; [19]): ≥ 20 µM
- Kd (HLA-B*39:01; [19]): ≥ 20 µM
- Kd (HLA-B*57:01 [15]; [19]): ≥ 20 µM
- Kd (HLA-B*18:01 [16]; [19]): ≥ 20 µM
- Kd (HLA-B*51:01; [19]): ≥ 20 µM
- Kd (HLA-A*03:01; [19]): ≥ 20 µM
- Kd (HLA-A*02:12; [19]): ≥ 20 µM
- Kd (HLA-A*29:02; [19]): ≥ 20 µM
- Kd (HLA-A*02:11; [19]): ≥ 20 µM
- Kd (HLA-A*02:16; [19]): ≥ 20 µM
- Kd (HLA-A*02:03; [19]): ≥ 20 µM
- Kd (HLA-A*23:01; [19]): ≥ 20 µM
- Kd (HLA-A*02:19; [19]): ≥ 20 µM
- Kd (HLA-A*68:02; [19]): ≥ 20 µM
- Kd (HLA-B*07:02; [21]): 442 nM
- Kd (HLA-A*24:03; [19]): ≥ 20 µM
